Assays:
[1] = molecular target: tubulin (sheep brain) (sheep); assay: co-sedimentation; 20 μM tubulin polymerised with 10 μM YB-1 in buffer M with 10% glycerol at 37°C to steady state, microtubules pelleted at 300 000 × g; SDS-PAGE, visual estimation on Coomassie stained gels; conditions: scale: mole of YB-1 per mole of tubulin heterodimer
[2] = molecular target: tubulin (sheep brain) (sheep); assay: co-sedimentation; 20 μM tubulin polymerised with 5 μM YB-1 in buffer M with 10% glycerol at 37°C to steady state, microtubules pelleted at 300 000 × g; SDS-PAGE, visual estimation on Coomassie stained gels; conditions: scale: mole of YB-1 per mole of tubulin heterodimer

YB-1, sequence (Q28618 whole entry): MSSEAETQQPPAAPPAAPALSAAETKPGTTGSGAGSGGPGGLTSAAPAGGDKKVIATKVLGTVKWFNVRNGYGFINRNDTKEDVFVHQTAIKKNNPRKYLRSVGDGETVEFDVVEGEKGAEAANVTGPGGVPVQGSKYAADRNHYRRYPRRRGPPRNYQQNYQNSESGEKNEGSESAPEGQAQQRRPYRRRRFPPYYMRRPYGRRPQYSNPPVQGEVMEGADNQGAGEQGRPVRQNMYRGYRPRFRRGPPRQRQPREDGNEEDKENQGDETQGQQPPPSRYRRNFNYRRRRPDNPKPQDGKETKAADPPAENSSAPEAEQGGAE

stoichiometry N [1]: 0.5
stoichiometry N [2]: 0.33
Substance: YB-1 (from UniProt Q28618 1-324) (natural protein)

Reference: publication PMC2557009
